Test results: patent US11578136B2, “Compositions and methods for treating cancer” (INNATE PHARMA, priority 2017, dated 2023)
Changes are numbered by the printed parent chain. “Also recorded” adds a separate entry of the source.

Experiments:
[1] = target: T1, soluble recombinant human CD39 protein (Homo sapiens, UniProt P49961); assay: Inhibition of the enzymatic activity of soluble CD39 (Cell Titer Glo); type: biochemical
T1 construct: made in house; host or cells: CHO cells
T1 sequence (P49961 with tags, fused parts or gaps): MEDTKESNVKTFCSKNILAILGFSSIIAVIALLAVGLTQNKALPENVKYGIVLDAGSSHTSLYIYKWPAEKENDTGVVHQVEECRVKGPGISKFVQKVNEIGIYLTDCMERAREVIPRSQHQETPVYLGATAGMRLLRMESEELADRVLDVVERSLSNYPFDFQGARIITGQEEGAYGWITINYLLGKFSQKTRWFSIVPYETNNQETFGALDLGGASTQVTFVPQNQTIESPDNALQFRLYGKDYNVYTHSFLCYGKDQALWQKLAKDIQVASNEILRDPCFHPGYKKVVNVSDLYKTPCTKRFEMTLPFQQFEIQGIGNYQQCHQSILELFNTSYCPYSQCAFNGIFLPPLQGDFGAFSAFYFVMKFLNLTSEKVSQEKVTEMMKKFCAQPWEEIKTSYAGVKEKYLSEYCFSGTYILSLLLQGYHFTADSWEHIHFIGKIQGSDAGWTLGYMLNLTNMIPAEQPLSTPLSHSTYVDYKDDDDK
Description: The inhibition by antibodies of the enzymatic activity of soluble CD39 protein produced was evaluated using Cell Titer Glo™ (Promega, reference G7571) that allows assessment of ATP hydrolysis through use of a reagent that generates a luminescent signal proportional to the amount of ATP present. In this way, inhibition of the soluble-CD39-meidatd ATP hydrolysis can be assessed. Briefly, dose ranges of anti-CD39 antibodies from 100 μg/ml to 6×10^−3 μg/ml were incubated with 400 ng/ml of soluble recombinant human CD39 protein having the amino acid sequence described in the Methods section (SEQ ID NO: 45), for 1 h at 37° C. 20 μM ATP was added to the plates for 30 additional minutes at 37° C. before addition of CTG (Cell Titer Glo) reagent. Emitted light was quantified using an Enspire™ luminometer after a short incubation period of 5 min in the dark. Anti-CD39 antibody efficacy was determined by comparing emitted light in presence of antibody with ATP alone (maximal light emission) and ATP together with soluble CD39 protein (minimal light emission).

[2] = target: T2, CD39 mutants transfected in Hek-293T cells (Homo sapiens, UniProt P49961, E143A/N99A/Q96A/R147E); assay: Epitope mapping: binding to CD39 mutants by flow cytometry; conditions: mutant 5: Q96A, N99A, E143A, R147E; vs wild-type CD39
T2 construct: expressed in transfected cells; host or cells: HEK-293T cells
T2 sequence (P49961 1-510 Q96A/N99A/E143A/R147E): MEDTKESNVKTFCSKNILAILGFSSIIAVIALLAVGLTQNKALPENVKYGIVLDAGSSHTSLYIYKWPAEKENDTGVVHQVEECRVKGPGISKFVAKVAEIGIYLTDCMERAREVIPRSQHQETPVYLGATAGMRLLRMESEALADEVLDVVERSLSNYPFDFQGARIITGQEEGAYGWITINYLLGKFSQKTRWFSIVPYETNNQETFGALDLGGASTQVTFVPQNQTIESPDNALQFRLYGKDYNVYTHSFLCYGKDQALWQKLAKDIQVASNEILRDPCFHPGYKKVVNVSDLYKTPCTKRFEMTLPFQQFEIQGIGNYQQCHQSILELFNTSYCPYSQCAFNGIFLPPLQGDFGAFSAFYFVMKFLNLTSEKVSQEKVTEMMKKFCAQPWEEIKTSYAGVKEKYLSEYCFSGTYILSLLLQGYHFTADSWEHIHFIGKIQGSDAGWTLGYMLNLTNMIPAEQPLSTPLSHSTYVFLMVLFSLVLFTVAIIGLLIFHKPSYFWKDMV
Description: (§1) CD39 mutants were generated by PCR. The sequences amplified were run on agarose gel and purified using the Macherey Nagel PCR Clean-Up Gel Extraction kit (reference 740609). The purified PCR products generated for each mutant were then ligated into an expression vector, with the ClonTech InFusion system. The vectors containing the mutated sequences were prepared as Miniprep and sequenced. After sequencing, the vectors containing the mutated sequences were prepared as Midiprep using the Promega PureYield™ Plasmid Midiprep System. HEK293T cells were grown in DMEM medium (Invitrogen), transfected with vectors using Invitrogen's Lipofectamine 2000 and incubated at 37° C. in a CO2 incubator for 48 hours prior to testing for transgene expression. The targeted amino acid mutations in the table 1 below are shown using numbering of SEQ ID NO: 1.
(§2) In order to define the epitopes of anti-CD39 antibodies, we designed CD39 mutants defined by substitutions of amino acids exposed at the molecular surface over the surface of CD39. Mutants were transfected in Hek-293T cells, as shown in the table 1, using numbering of SEQ ID NO: 1.
(§3) Dose-ranges of I-394 (10-2.5-0.625-0.1563-0.0391-0.0098-0.0024-0.0006 μg/ml) are tested on the 20 generated mutants by flow cytometry. […] Mutant 5 contains amino acid substitutions at residues Q96, N99, E143 and R147.
(§4) Mutants were transfected in Hek-293T cells, as shown in the table 1, using numbering of SEQ ID NO: 1. Dose-ranges of antibodies I-394 were tested on the 20 mutants by flow cytometry. […] Mutant 19 includes substitutions at residues R138, M139 and E142. The core epitope of I-394 thus includes one or more (or all of) residues R138, M139 and E142.
(§5) Mutants were transfected in Hek-293T cells, as shown in the table 1, using numbering of SEQ ID NO: 1.Dose-ranges of test antibodies (10-2.5-0.625-0.1563-0.0391-0.0098-0.0024-0.0006 μg/ml) are tested on the 20 generated mutants by flow cytometry.

[3] = target: T3, CD39 mutants transfected in Hek-293T cells (Homo sapiens, UniProt P49961, E142K/M139A/R138A); assay: as above; conditions: mutant 19: R138A, M139A, E142K; vs wild-type CD39
T3 construct: expressed in transfected cells; host or cells: HEK-293T cells
T3 sequence (P49961 1-510 R138A/M139A/E142K): T2 sequence (P49961 1-510 Q96A/N99A/E143A/R147E) with A96Q, A99N, R138A, M139A, E142K, A143E, E147R
Description: as §1, §2, §3, §4, §5

I-394: anti-CD39 antibody, VH SEQ ID NO: 6, VL SEQ ID NO: 7; human IgG1 Fc with L234A/L235E/G237A/A330S/P331S
maximum inhibition achieved, soluble CD39 [1]: 74.9%
relative potency of inhibition of soluble CD39 (FIG. 2B) ([1]; ranking among I-394, I-395, I-396): greatest potency
inhibition of the enzymatic activity of soluble CD39 protein ([1]; result in words, 400 ng/ml sCD39, 20 μM ATP): strong inhibition; also recorded: inhibits
binding to cells expressing mutant 5 of CD39 [2]: strongly reduced binding
binding to cells expressing mutant 19 of CD39 [3]: complete loss of binding
